From patent US20090221680, “Aptamers that bind thrombin with high affinity” (published 2009)

Key:
[1] = target: T1, thrombin (alpha-thrombin) (Homo sapiens, UniProt P00734;P00734 P00734:315-363,P00734:364-622); experiment: filter
[2] = target: T1, thrombin (alpha-thrombin); experiment: filter; 10 nM thrombin

Binder | Kd [1] [nM] | binding signal [2] [% bound]
ACTGCCTAGGTTGGGTAGGGTGGTGGCAGT (ssDNA, PS linkage between nt 15 and 16) [ARC2658] | 0.253 | –
AAUGATTAGGTTGGGTAGGGTGGTAUCAUU (XNA, 2'-OMe 1-5,26-30, rest DNA) [ARC2829] | 0.93 | –
ACTGCCTAGGTTGGGTAGGGTGGTGGCAGT (ssDNA, PS linkage between nt 9 and 10) [ARC2652] | 0.192 | –
AAUGAUTAGGTTGGGTAGGGTGGTAUCAUU (XNA, 2'-OMe 1-6,25-30, rest DNA) [ARC2828] | 0.33 | –
ACTGCCTAGGTTGGGTAGGGTGGTGGCAGT (ssDNA, PS linkage between nt 28 and 29) [ARC2671] | 0.158 | –
ACTGCCTAGGTTGGGTAGGGTGGTGGCAGT (ssDNA, PS linkage between nt 18 and 19) [ARC2661] | 0.246 | –
ACTGCCTAGGTTGGGTAGGGTGGTGGCAGT (ssDNA, PS linkage between nt 24 and 25) [ARC2667] | 0.459 | –
ACTGCCTAGGTTGGGTAGGGTGGTGGCAGT (ssDNA, PS linkage between nt 21 and 22) [ARC2664] | 0.211 | –
ACTGCCTAGGTTGGGTAGGGTGGTGGCAGT (ssDNA, PS linkage between nt 7 and 8) [ARC2650] | 0.23 | –
ACTGCCTAGGTTGGGTAGGGTGGTGGCAGT (ssDNA, PS linkage between nt 4 and 5) [ARC2647] | 0.161 | –
ACTGCCTAGGTTGGGTAGGGTGGTGGCAGT (ssDNA, PS linkage between nt 11 and 12) [ARC2654] | 0.095 | –
TCCCGCTCGATTTCGAAGAATGGTTGGTTTGGGTGGCTGAGGATCGATC (ssDNA) [AMX(398)_B11] | – | 9.76
TCCCGAGAGATTCAAAAGGGACTGGGCGGTTGGGTGGCTGAGGATCGATC (ssDNA) [AMX(399)_H4] | – | 7.7
ACTGCCTAGGTTGGGTAGGGTGGTGGCAGT (ssDNA, PS linkage between nt 13 and 14) [ARC2656] | 0.151 | –
ACTGCCTAGGTTGGGTAGGGTGGTGGCAGT (ssDNA, PS linkage between nt 17 and 18) [ARC2660] | 0.23 | –
CUGCCTAGGTTGGGTAGGGTGGTGGCAG (XNA, 2'-OMe 1-4,26-28, rest DNA) [ARC2832] | 1.88 | –
ACTGCCTAGGTTGGGTAGGGTGGTGGCAGT (ssDNA, PS linkage between nt 19 and 20) [ARC2662] | 0.165 | –
ACTGCCTAGGTTGGGTAGGGTGGTGGCAGT (ssDNA, PS linkage between nt 2 and 3) [ARC2645] | 0.167 | –
ACTGCCTAGGTTGGGTAGGGTGGTGGCAGT (ssDNA, PS linkage between nt 22 and 23) [ARC2665] | 0.121 | –

Binder | Kd [1] [nM] | binding signal [2] [% bound]
ACTGCCTAGGTTGGGTAGGGTGGTGGCAGT (ssDNA, PS linkage between nt 26 and 27) [ARC2669] | 0.129 | –
AUGAUUAGGTTGGGTAGGGTGGUAUCAU (XNA, 2'-OMe 1-6,23-28, rest DNA) [ARC2834] | 10.3 | –
TCCCATGTGTTAGATCCGTGTGGTTGGACTGGGTGGCTGAGGATCGATC (ssDNA) [AMX(398)_C3] | – | 10.8
ACTGCCTAGGTTGGGTAGGGTGGTGGCAGT (ssDNA, PS linkage between nt 6 and 7) [ARC2649] | 0.264 | –
TCCCGACTTTAGATCCGTGTTGGATGGCCTGGGTGGCTGAGGATCGATC (ssDNA) [AMX(399)_H2] | – | 5.49
ACTGCCTAGGTTGGGTAGGGTGGTGGCAGT (ssDNA, PS linkage between nt 25 and 26) [ARC2668] | 0.159 | –
ACTGCCTAGGTTGGGTAGGGTGGTGGCAGT (ssDNA, PS linkage between nt 27 and 28) [ARC2670] | 0.16 | –
ACTGCCTAGGTTGGGTAGGGTGGTGGCAGT (ssDNA, PS linkage between nt 5 and 6) [ARC2648] | 0.128 | –
TCCCGATCGCTGTCCTAGGATGGGTAGGGTGGTGGCTGAGGATCGATC (ssDNA) [AMX(399)_G10] | – | 38.4
ACTGCCTAGGTTGGGTAGGGTGGTGGCAGT (ssDNA, PS linkage between nt 29 and 30) [ARC2672] | 0.141 | –
CUGCCUAGGTTGGGTAGGGTGGUGGCAG (XNA, 2'-OMe 1-6,23,24,26-28, rest DNA) [ARC2830] | 15.3 | –
ACTGCCTAGGTTGGGTAGGGTGGTGGCAGT (ssDNA, PS linkage between nt 20 and 21) [ARC2663] | 0.18 | –
ACTGCCTAGGTTGGGTAGGGTGGTGGCAGT (ssDNA, PS linkage between nt 3 and 4) [ARC2646] | 0.169 | –
AUGAUTAGGTTGGGTAGGGTGGTAUCAU (XNA, 2'-OMe 1-5,24-28, rest DNA) [ARC2835] | 1.27 | –
ACTGCCTAGGTTGGGTAGGGTGGTGGCAGT (ssDNA, PS linkage between nt 14 and 15) [ARC2657] | 0.219 | –
ATGATTAGGTTGGGTAGGGTGGTATCAT (ssDNA) [ARC2833] | 2.16 | –
ACTGCCTAGGTTGGGTAGGGTGGTGGCAGT (ssDNA, PS linkage between nt 8 and 9) [ARC2651] | 0.111 | –
CUGCCTAGGTTGGGTAGGGTGGTGGCAG (XNA, 2'-OMe 1-5,24,26-28, rest DNA) [ARC2831] | 5.12 | –
